Test results taken from publication PMC2756588.
Where “and” joins values, the source holds several entries; their conditions need not be identical. Identical values can stand only once.

Experiments:
Test in all cases: SPOT array
[1] = molecular target: T1, Sla1-3, P32790; conditions: median of control spots 5475
T1 sequence (P32790 344-424, looked up): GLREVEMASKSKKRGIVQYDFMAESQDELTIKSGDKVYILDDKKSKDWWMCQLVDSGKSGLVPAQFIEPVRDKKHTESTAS

[2] = molecular target: T2, Bbc1, P47068; conditions: median of control spots 796
T2 sequence (P47068 1-78, looked up): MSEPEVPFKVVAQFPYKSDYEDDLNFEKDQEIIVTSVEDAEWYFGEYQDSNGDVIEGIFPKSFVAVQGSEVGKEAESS

[3] = molecular target: T3, Boi2, P39969; conditions: median of control spots 1161
T3 sequence (P39969 32-116, looked up): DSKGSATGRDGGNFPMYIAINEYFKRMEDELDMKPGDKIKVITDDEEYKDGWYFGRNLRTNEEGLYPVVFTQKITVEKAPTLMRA

[4] = molecular target: T4, Bzz1-2, P38822; conditions: median of control spots 4538
T4 sequence (P38822 568-633, looked up): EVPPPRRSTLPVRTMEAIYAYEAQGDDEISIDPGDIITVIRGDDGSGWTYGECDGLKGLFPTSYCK

[5] = molecular target: T5, Bud14, P27637; conditions: median of control spots 956
T5 sequence (P27637 247-328, looked up): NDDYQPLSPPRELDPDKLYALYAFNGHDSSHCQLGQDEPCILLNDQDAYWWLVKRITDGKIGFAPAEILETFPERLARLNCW

[6] = molecular target: T6, Nbp2, Q12163; conditions: median of control spots 357
T6 sequence (Q12163 103-180, looked up): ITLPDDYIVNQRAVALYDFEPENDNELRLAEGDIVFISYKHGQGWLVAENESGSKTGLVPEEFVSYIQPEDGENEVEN

[7] = molecular target: T7, Boi1, P38041; conditions: median of control spots 1162
T7 sequence (P38041 1-86, looked up): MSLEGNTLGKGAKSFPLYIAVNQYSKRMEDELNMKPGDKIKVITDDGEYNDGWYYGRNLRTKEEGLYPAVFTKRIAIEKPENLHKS

[8] = molecular target: T8, Pex13, P80667; conditions: median of control spots 1341
T8 sequence (P80667 295-386, looked up): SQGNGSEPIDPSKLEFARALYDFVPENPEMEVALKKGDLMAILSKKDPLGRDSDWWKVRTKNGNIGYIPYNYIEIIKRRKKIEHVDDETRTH

[9] = molecular target: T9, Cyk3, Q07533; conditions: median of control spots 1451
T9 sequence (Q07533 1-83, looked up): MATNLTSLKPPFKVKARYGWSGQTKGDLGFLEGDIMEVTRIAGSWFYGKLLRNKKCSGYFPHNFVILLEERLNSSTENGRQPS

[10] = molecular target: Sho1, P40073; conditions: median of control spots 1148
[11] = molecular target: T10, Abp1, P15891; conditions: median of control spots 935
T10 sequence (P15891 535-592, looked up): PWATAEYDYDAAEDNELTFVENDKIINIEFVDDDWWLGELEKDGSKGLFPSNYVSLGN

[12] = molecular target: T11, Hse1, P38753; conditions: median of control spots 1727
T11 sequence (P38753 208-285, looked up): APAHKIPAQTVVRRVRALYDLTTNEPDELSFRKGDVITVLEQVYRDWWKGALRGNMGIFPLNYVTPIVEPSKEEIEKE

[13] = molecular target: T12, Myo5, Q04439; conditions: median of control spots 471
T12 sequence (Q04439 1072-1160, looked up): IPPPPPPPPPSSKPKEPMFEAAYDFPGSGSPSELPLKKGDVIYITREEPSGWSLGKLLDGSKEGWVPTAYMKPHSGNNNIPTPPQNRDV

[14] = molecular target: Bem1-1, P29366; conditions: median of control spots 4282
[15] = molecular target: T13, Sla1-2, P32790; conditions: median of control spots 712
T13 sequence (P32790 60-140, looked up): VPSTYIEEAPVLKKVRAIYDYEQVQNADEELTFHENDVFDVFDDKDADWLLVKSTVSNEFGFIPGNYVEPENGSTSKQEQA

[16] = molecular target: Bem1-2, P29366; conditions: median of control spots 4347
[17] = molecular target: T14, Hof1, Q05080; conditions: median of control spots 4086
T14 sequence (Q05080 590-669, looked up): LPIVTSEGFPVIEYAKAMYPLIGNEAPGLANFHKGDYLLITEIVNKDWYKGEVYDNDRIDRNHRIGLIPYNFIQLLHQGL

[18] = molecular target: T15, Cdc25, P04821; conditions: median of control spots 969
T15 sequence (P04821 50-136, looked up): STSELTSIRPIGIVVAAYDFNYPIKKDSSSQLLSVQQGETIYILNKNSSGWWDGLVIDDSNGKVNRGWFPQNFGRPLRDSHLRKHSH

[19] = molecular target: Myo3, P36006; conditions: median of control spots 468
[20] = molecular target: T16, Lsb4, P32793; conditions: median of control spots 397
T16 sequence (P32793 402-468, looked up): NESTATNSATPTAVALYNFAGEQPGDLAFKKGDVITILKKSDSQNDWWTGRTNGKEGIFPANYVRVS

[21] = molecular target: T17, Fus1, P11710; conditions: median of control spots 1200
T17 sequence (P11710 432-512, looked up): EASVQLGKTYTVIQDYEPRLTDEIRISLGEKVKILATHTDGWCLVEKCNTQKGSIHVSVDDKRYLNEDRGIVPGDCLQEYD

[22] = molecular target: T18, Pin3, Q06449; conditions: median of control spots 2171
T18 sequence (Q06449 53-122, looked up): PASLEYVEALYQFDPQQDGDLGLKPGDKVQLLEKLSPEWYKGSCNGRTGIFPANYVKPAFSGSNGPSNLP

[23] = molecular target: GST; conditions: median of control spots 978
[24] = molecular target: T19, Bzz1-1, P38822; conditions: median of control spots 4446
T19 sequence (P38822 478-572, looked up): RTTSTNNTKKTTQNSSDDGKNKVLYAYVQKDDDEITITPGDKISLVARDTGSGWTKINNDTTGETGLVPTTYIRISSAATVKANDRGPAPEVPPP

[25] = molecular target: T20, Lsb1, P53281; conditions: median of control spots 388
T20 sequence (P53281 45-122, looked up): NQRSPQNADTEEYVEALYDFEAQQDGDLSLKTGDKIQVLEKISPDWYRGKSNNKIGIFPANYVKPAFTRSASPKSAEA

[26] = molecular target: Rvs167, P39743; conditions: median of control spots 2707
[27] = molecular target: T21, Lsb3, P43603; conditions: median of control spots 406
T21 sequence (P43603 385-451, looked up): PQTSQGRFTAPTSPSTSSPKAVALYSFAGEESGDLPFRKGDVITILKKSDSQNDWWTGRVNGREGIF

Chain of Bem1-1, P29366 (P29366 55-141): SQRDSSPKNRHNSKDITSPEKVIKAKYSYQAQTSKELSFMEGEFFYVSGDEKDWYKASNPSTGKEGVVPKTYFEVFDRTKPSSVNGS
Chain of Rvs167, P39743 (P39743 419-482): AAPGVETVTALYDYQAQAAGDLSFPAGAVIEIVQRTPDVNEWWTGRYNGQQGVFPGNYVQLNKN
Chain of Bem1-2, P29366 (P29366 139-227): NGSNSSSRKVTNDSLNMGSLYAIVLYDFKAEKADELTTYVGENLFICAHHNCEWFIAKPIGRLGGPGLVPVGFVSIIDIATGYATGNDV
Chain of Sho1, P40073 (P40073 287-367): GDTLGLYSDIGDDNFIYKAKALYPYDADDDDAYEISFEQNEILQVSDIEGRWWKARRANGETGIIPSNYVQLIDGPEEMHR

| Binder | SPOT intensity [1] | SPOT intensity [2] | SPOT intensity [3] | SPOT intensity [4] | SPOT intensity [5] | SPOT intensity [6] | SPOT intensity [7] | SPOT intensity [8] | SPOT intensity [9] | SPOT intensity [10] | SPOT intensity [11] | SPOT intensity [12] | SPOT intensity [13] | SPOT intensity [14] | SPOT intensity [15] | SPOT intensity [16] | SPOT intensity [18] | SPOT intensity [19] | SPOT intensity [20] | SPOT intensity [22] | further results |
| --- | --- | --- | --- | --- | --- | --- | --- | --- | --- | --- | --- | --- | --- | --- | --- | --- | --- | --- | --- | --- | --- |
| RHLKNIPRIPIFSIL | 992 and 402 | 25 and 23 | 3 and 1 | 394 and 164 | 16 and 18 | 184 and 63 | 14 and 10 | 163 and 113 | 1 and 3 | 160 and 101 | 49 and 31 | 307 and 687 | 5 and 3 | 823 and 2170 | 0 | 4830 and 2260 | 230 and 113 | 14 and 19 | 4 and 7 | 84 | SPOT intensity [17]: 5560 and 3670; SPOT intensity [21]: 1870 and 1460 |
| GPPPPLPPPLFPSSS | 0 | 0 | 0 | 0 | 0 | 0 | 0 | 725 | 0 | 0 | 6 | 0 | 362 | 0 | 0 | 0 | 0 | 575 | 10 | 0 | SPOT intensity [23]: 0; SPOT intensity [24]: 0; SPOT intensity [25]: 64; SPOT intensity [26]: 0; SPOT intensity [27]: 0; SPOT intensity [17]: 1690; SPOT intensity [21]: 0 |
| SSSSTPPTLPPRRIE | 1 | 11 | 0 | 0 | 0 | 0 | 0 | 365 | 0 | 0 | 19 | 9 | 11 | 0 | 1 | 0 | 2 | 99 | 907 | 58 | SPOT intensity [23]: 0; SPOT intensity [24]: 0; SPOT intensity [25]: 1360; SPOT intensity [26]: 5650; SPOT intensity [27]: 1090; SPOT intensity [17]: 5; SPOT intensity [21]: 0 |
| LKPPIGRPPKFPKSP | 0 | 18 | 0 | 0 | 0 | 0 | 3 | 4 | 0 | 24 | 133 | 1 | 117 | 0 | 0 | 0 | 0 | 397 | 0 | 0 | SPOT intensity [23]: 0; SPOT intensity [24]: 0; SPOT intensity [25]: 0; SPOT intensity [26]: 0; SPOT intensity [27]: 3; SPOT intensity [17]: 0; SPOT intensity [21]: 0 |
| PLQSKIPMLPSRRTM | 0 | 29 | 0 | 0 | 0 | 12 | 0 | 329 | 2 | 21 | 124 | 3 | 35 | 1 | 14 | 0 | 0 | 102 | 960 | 280 | SPOT intensity [23]: 0; SPOT intensity [24]: 0; SPOT intensity [25]: 396; SPOT intensity [26]: 1570; SPOT intensity [27]: 635; SPOT intensity [17]: 186; SPOT intensity [21]: 0 |
| VSKLRSPNTPRRLRK | 9 and 7 | 223 and 226 |  |  | 6 | 0 | 8 and 4 | 3 and 1 | 2 and 1 | 267 and 126 | 216 and 273 |  |  | 1 and 3 | 0 |  | 55 and 39 | 8 and 6 | 206 and 92 | 5 and 3 | SPOT intensity [23]: 3 and 1; SPOT intensity [24]: 0; SPOT intensity [27]: 72 and 49 |
| SPAPIVPREPLRNEP | 3540 and 3050 | 49 and 40 | 28 and 50 | 4030 and 3640 | 184 and 188 |  | 45 and 64 | 403 and 875 | 241 and 231 | 138 and 78 | 122 and 106 | 2790 and 3860 | 88 and 90 | 3190 and 3200 |  | 2910 and 3310 | 240 and 142 | 122 and 104 | 114 and 89 | 721 and 289 | SPOT intensity [23]: 1000 and 337; SPOT intensity [24]: 3070 and 3750; SPOT intensity [26]: 2590 and 3300; SPOT intensity [27]: 46 and 25; SPOT intensity [17]: 1550 and 3190; SPOT intensity [21]: 227 and 99 |
